The values below come from publication PMC9302186, “Defining variant-resistant epitopes targeted by SARS-CoV-2 antibodies: A global consortium study” (Science (New York, N.y.), 2021).

The test deals with T1, SARS-CoV-2 spike receptor binding domain, monomeric (SARS-CoV-2, UniProt P0DTC2).
T1 construct: also called RBD; monomeric RBD
The test is described as follows: SPR. Particulars: both partners purified.

B1: CoVIC-259 (antibody, V domains shown)
VH: EVQLVESGGGVVQPGRSLRLSCAASGFTFSSYAMHWVRQAPGKGLEWVAVLSYDGSNKYNADSVKGRFTISRDNSKNTLYLQMNSLRVEDTAMYYCARDGVSVTMVRGVIGPLCDYWGQGTLVTVSS
VL: not shown
notes: also called RBD-1 community representative
Take B1: the binding result is recorded as “binds”.
